{"source": "paper PMC4615246", "binders": {"B1": {"name": "Nup93 (endogenous), Q8N1F7 1-819 (natural protein)", "chain": "MDTEGFGELLQQAEQLAAETEGISELPHVERNLQEIQQAGERLRSRTLTRTSQETADVKASVLLGSRGLDISHISQRLESLSAATTFEPLEPVKDTDIQGFLKNEKDNALLSAIEESRKRTFGMAEEYHRESMLVEWEQVKQRILHTLLASGEDALDFTQESEPSYISDVGPPGRSSLDNIEMAYARQIYIYNEKIVNGHLQPNLVDLCASVAELDDKSISDMWTMVKQMTDVLLTPATDALKNRSSVEVRMEFVRQALAYLEQSYKNYTLVTVFGNLHQAQLGGVPGTYQLVRSFLNIKLPAPLPGLQDGEVEGHPVWALIYYCMRCGDLLAASQVVNRAQHQLGEFKTWFQEYMNSKDRRLSPATENKLRLHYRRALRNNTDPYKRAVYCIIGRCDVTDNQSEVADKTEDYLWLKLNQVCFDDDGTSSPQDRLTLSQFQKQLLEDYGESHFTVNQQPFLYFQVLFLTAQFEAAVAFLFRMERLRCHAVHVALVLFELKLLLKSSGQSAQLLSHEPGDPPCLRRLNFVRLLMLYTRKFESTDPREALQYFYFLRDEKDSQGENMFLRCVSELVIESREFDMILGKLENDGSRKPGVIDKFTSDTKPIINKVASVAENKGLFEEAAKLYDLAKNADKVLELMNKLLSPVVPQISAPQSNKERLKNMALSIAERYRAQGISANKFVDSTFYLLLDLITFFDEYHSGHIDRAFDIIERLKLVPLNQESVEERVAAFRNFSDEIRHNLSEVLLATMNILFTQFKRLKGTSPSSSSRPQRVIEDRDSQLRSQARTLITFAGMIPYRTSGDTNARLVQMEVLMN"}}, "target": "T1, LacI-CFP-Nup50 (human), Q9UKX7", "T1 chain": "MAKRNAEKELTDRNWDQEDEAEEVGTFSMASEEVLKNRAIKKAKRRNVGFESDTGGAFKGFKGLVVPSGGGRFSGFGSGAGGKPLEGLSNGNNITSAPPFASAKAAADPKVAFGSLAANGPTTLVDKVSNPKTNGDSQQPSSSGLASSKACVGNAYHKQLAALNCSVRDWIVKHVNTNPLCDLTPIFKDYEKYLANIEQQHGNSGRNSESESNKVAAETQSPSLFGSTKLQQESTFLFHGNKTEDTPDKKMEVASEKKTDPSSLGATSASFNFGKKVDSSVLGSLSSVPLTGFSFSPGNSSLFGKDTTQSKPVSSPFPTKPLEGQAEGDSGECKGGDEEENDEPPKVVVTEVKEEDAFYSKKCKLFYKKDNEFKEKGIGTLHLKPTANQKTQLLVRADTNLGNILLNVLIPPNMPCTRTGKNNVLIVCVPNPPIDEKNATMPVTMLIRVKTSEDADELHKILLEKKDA", "test": "LacI/LacO array recruitment in cells", "settings": "remark: other sources report otherwise"}
{"binder": "B1", "values": [{"measurement": "percent of transfected cells showing colocalization", "result": 28, "unit": "%"}]}
